Substitutions are numbered along the chain they refer to.

Experiment [1] concerns the target T1, human TNFR2 expressed on cells (Expi293 cells stably expressing huTNFR2) (human, UniProt P20333 23-461).
T1 construct: whole, on cells; Also used here as the target of the Treg assay (native TNFR2 on human primary Treg cells); also called huTNFR2 expressed cells; Expi293-TNFR2 cells
T1 sequence (looked up): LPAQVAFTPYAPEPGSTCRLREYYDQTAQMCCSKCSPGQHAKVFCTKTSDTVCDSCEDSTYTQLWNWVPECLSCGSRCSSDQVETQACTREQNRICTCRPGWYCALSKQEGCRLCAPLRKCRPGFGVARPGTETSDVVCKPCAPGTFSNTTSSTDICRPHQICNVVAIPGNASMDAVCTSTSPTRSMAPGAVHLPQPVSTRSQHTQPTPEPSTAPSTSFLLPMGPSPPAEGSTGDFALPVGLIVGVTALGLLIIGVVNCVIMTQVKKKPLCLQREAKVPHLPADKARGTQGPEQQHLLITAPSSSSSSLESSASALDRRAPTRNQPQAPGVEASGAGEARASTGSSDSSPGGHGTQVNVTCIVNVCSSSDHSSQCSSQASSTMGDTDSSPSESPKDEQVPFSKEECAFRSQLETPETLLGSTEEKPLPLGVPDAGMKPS
The experiment in a line: flow cytometry on Expi293 cells stably expressing huTNFR2. The procedure:
The coding sequence of huTNFR2 (Uniprot, P20333) was cloned into a lentiviral vector and the virus was packaged according to the instruction of the virus packaging kit (Lenti-X™ Packaging Single Shots, Cat #631275, Takada). The Expi293 cells were transduced with the recombinant virus and selected by puromycin. The cell line stably expressing huTNFR2 was incubated with anti-TNFR2 antibodies in PBS with 0.5% BSA, 1 mM EDTA, and 0.1% sodium azide (FACS buffer) for 30 minutes at 4° C. The cells were washed, and then incubated with 10 nM phycoerythrin (PE) conjugated anti-Human Fe Ab (Biolegend, cat #409304) for 20 minutes at 4° C. Cells were washed and then […] by flow cytometry with Attune (ThermoFisher Scientific). Data were analyzed with FlowJo software. Antibody binding is represented as median fluorescence intensity (MFI).
As shown by the results in Table 9 and FIG. 4A, the anti-TNFR2 antibodies, 51B5, 102E4, 85G8.4, 29G3, 11C1, and 15H10 bind to Expi293-TNFR2 cells dose-dependently and potently.
(In general: In flow cytometry, cells or beads pass a laser one at a time.)

The target in experiment [2] is T2, human TNFR2 extracellular domain with C-terminal 10×His tag (human, UniProt P20333 23-257).
T2 construct: also called huTNFR2-His; His-tag-huTNFR2
T2 sequence: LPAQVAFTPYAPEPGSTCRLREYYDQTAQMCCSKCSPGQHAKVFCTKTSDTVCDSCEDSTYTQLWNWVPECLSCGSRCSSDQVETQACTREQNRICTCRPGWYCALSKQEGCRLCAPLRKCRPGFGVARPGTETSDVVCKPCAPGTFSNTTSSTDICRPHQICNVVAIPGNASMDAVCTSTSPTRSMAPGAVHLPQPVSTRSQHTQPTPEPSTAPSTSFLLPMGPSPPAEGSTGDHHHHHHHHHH
The experiment in a line: ELISA, plate coated with His-tagged TNFR2 ECD, serial dilution of chimeric IgG. The procedure: (§1) TNFR2 binding of purified recombinant chimeric antibodies: The huTNFR2, cynoTNFR2 antigen binding ELISA was performed on the purified recombinant chimeric antibodies. Briefly, 384-well, clear, flat bottom, high binding plates (VWR, cat #29444-096) were coated overnight at 4° C. with 1 μg/mL of huTNFR2 or cynomolgus monkey TNFR2-His in PBS. After removing the coating solution, the plates were blocked by adding blocking buffer and incubated at room temperature for 1 hour. Plates were then washed 3 times with wash buffer. Serial dilution of purified antibodies in PBS was added to individual well followed by incubation at room temperature for 1 hour. Plates were washed 3 times with wash buffer. Then 50 μL/well of goat anti hu Kappa —AP (Southern Biotech, cat #2061-04) at 1:3000 dilution or goat anti human IgG Fc-AP at 1:3000 dilution in ELISA diluent was added, incubated at room temperature for 1 hour, washed 5 times with wash buffer and developed for 30 minutes with 50 μL/well of pNPP substrate. Plates were analyzed with a Bio-TEK at 405 nm. The chimeric TNFR2 antibodies were tested positive for binding to huTNFR2 and cynoTNFR2. The TNFR2 binding EC50 values are shown in Table 6, FIG. 1A (for huTNFR2) and FIG. 1B (for cynoTNFR2).
A general note: In an ELISA, binding on a coated surface is turned into a signal by an enzyme label.

For experiment [3], the target named is T2, human TNFR2 extracellular domain with …. Put plainly: BLI (Octet RED96), antibody captured on AHC biosensor, His-tagged TNFR2 in solution, 1:1 model. The procedure:
The following kinetic assay was performed using anti-human IgG Fc capture (AHC) biosensors (ForteBio) in kinetics buffer (PBS, 0.1% Tween-20 and 1% bovine serum albumin): (a) antibody (2 μg/mL) for 300 sec, (b) baseline for 120 sec, (c) association with His-tag-huTNFR2 (2.5, 0.5 and 0 μg/mL) and His-tag-cynoTNFR2 (2.5, 0.5 and 0 μg/mL) for 420 sec and (d) dissociation for 1200 sec. Data fitting and analysis was performed with Octet data analysis software 8.0 (ForteBio) using a 1:1 binding model after Savitzky-Golay filtering.

Experiment [4] concerns the target T3, human TNFR2 extracellular domain fused to human IgG1 Fc (human, UniProt P20333 23-257).
T3 construct: also called TNFR2-huFc; huTNFR2; not shown: C-terminal human IgG1 Fc
T3 sequence: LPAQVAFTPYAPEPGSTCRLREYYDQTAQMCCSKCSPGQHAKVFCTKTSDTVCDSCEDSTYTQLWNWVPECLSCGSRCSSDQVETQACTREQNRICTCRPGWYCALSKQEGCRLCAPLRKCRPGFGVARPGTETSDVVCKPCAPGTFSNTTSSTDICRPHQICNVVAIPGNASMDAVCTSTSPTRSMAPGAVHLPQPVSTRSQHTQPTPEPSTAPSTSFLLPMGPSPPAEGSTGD
Put plainly: blocking ELISA: antibody pre-mixed with huTNFR2, binding of huTNFR2 to coated human TNFα read out. The procedure: 96-well round bottom ELISA plates were coated overnight at 4° C. with 50 μL/well of 0.5 μg/mL human TNFα recombinant protein (R&D system, Cat #210-TA-100) in coating buffer. After removing the coating solution, blocking buffer was added into the plates followed by incubation at room temperature for 1 hour in order to block unspecific binding. During the blocking period, hybridoma antibodies samples were mixed with 0.5 μg/mL TNFR2-huFc at a 1:1 volume ratio and incubated at room temperature for another 1.5 hours. Then 50 μL/well of antigen-antibody mix solution was transferred into TNFα coated wells and incubated at room temperature for 1.5 hours. Plates were then washed 5 times with wash buffer. Then, 50 μL/well of goats anti-human IgG Fc-AP (Southern Biotech, cat #2014-04) at 1:2000 dilution in assay buffer was added, incubated at room temperature for 1 hour, washed 4 times with wash buffer and developed for 30 minutes with 50 μL/well of pNPP substrate. Plates were analyzed with a Synergy HT (Bio-TEK) at 405 nm. Parental hybridomas with the desired human and cynoTNFR2 binding as well as the ability to block human TNFR2 and human TNFα binding were prioritized for subcloning and further characterization. Subcloning was carried out with limited dilution and visual inspection was performed to ensure clonality. Hybridoma subclones were screened with the same binding and blocking assays and selected positive hits were cryopreserved.
TNFR2 blocking by purified recombinant chimeric antibodies: Human TNFR2 blocking ELISA was performed on purified recombinant chimeric antibodies following the same protocol as described above, except that 50 μL/well of serial dilution of purified antibodies (starting at 10 μg/mL, 1:3 dilution) in assay buffer was added into the reaction. The blocking IC₅₀ value represents the antibody concentration that inhibited 50% of huTNFR2 or cynoTNFR2 binding to coated human TNFα or cynomolgus monkey TNFα.

Experiment [5] addresses T4, cynomolgus monkey TNFR2 extracellular domain with C-terminal 10×His tag (cynomolgus monkey, UniProt P20333 23-257 (human entry)).
T4 construct: also called cynoTNFR2-His; His-tag-cynoTNFR2
T4 chain: T2 sequence with S16G, S36P, P117Q, N164H, E210A, S216G, M223V
Put plainly: ELISA, plate coated with His-tagged TNFR2 ECD, serial dilution of chimeric IgG; ELISA; cynoTNFR2-His coated on plate at 1 µg/mL, bivalent IgG in solution. The procedure: as §1

B1: 102E4 chimeric anti-TNFR2 antibody (antibody, V domains shown)
VH: EVLLQQSGAELVRPGASVKLSCTASGFNIKDDFIHWVQQRPEQGLEWIGRINPSNANTEYAPKFQDKATITTDTSSNTAYLQLSSLTSEDTAVYYCTRNDGYYDGLFYWGQGTTLTVSS
VL: DIVMTQSHKFMSSSVGDRVSITCKASQDVGTAVAWYQQKPGQSPKLLIYWASTRHTGVPDRFTGSGSGTDFTLTISNVQSEDLADYFCQQYSSYPFTFGSGTKLEIK
notes: Chimeric: mouse variable domains with human constant regions, made as recombinant IgG1
Usually EC50 stands for the concentration needed to bring the measured effect to its halfway point. For orientation: Kd means the constant that tells how readily two partners part at equilibrium. Broadly, the koff is a measure of how fast the partners let go of each other. A word on the kon: it is the second-order rate constant of association. As a reminder, the IC50 is the concentration that gives 50% inhibition. For B1, the EC50 in experiment [1] is 0.819 nM. The same molecule came in with an EC50 in experiment [2] of 0.04 nM. Moreover, in experiment [3], the affinity, expressed as Kd, was 1.59 nM; the koff amounted to 0.000696 s⁻¹; the kon was 439000 M⁻¹ s⁻¹. The IC50 in experiment [4] was 1.13 nM. The molecule also returned an EC50 in experiment [5] of 0.338 nM.

These data come from US20250011448A1 (STAIDSON BIOPHARMA, published 2025).
